According to article PMC11098746:
Several values for one entry are separate records, joined by “and”; a condition that tells them apart may be missing. Equal entries are not always repeated.

Assays:
Izumo (Mus musculus) = Izumo (Mus musculus) (UniProt Q9D9J7); details: cited from earlier work
[1] = target: Pf34 bait (Pf34 ectodomain with CD4d3+4, human Fc and C-tag) (Plasmodium falciparum); assay: SPR
[2] = target: PfRON6 C-terminal bait (PfRON6 residues 537-950 with CD4d3+4, human Fc and C-tag) (Plasmodium falciparum); assay: SPR
[3] = target: Pf34 bait (P. falciparum Pf34 ectodomain, human Fc-tagged dimeric bait) (P. falciparum); assay: SPR
[4] = target: Pf34 bait (P. falciparum Pf34 ectodomain, human Fc-tagged dimeric bait) (P. falciparum)

Sequence of Juno (Q9EQF4 20-222): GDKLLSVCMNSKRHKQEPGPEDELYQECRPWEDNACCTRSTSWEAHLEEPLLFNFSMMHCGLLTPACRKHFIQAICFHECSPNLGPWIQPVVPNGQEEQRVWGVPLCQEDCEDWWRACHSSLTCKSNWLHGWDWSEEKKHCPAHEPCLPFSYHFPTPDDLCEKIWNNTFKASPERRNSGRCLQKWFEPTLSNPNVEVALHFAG
Sequence of Izumo (Mus musculus) (Q9D9J7 22-319): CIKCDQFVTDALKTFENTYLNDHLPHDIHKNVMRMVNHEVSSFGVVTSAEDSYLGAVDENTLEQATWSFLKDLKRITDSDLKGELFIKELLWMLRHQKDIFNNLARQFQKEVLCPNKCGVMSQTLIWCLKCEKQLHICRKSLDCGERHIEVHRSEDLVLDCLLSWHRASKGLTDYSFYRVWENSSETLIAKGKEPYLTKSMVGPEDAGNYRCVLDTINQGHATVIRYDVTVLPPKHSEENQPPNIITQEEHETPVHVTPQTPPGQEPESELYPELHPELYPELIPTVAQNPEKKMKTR

Juno (from UniProt Q9EQF4)
Kd (Izumo (Mus musculus)): 12 µM

FGFR4-CD4-Bio-His (purified monomeric human FGFR4 ectodomain) (from UniProt P22455 22-369) (receptor)
Kd [1]: 47 µM and 14 µM and 31 µM
kon [1]: 16000 M⁻¹ s⁻¹ and 44000 M⁻¹ s⁻¹ and 30000 M⁻¹ s⁻¹

Pf34-CD4-Bio-His (purified monomeric Pf34) (natural protein)
Kd [2]: 2900 nM
koff [2]: 0.0015 s⁻¹
kon [2]: 520 M⁻¹ s⁻¹

FGFR4-CD4-Bio-His (purified monomeric FGFR4 ectodomain) (from UniProt P22455 22-369) (receptor)
Kd [3]: 46 µM and 40 µM
t1/2 [3]: < 1 s and 0.4 s

FGFR4 prey (human fibroblast growth factor receptor 4 ectodomain, pentameric 5xNanoLuc-tagged prey) (from UniProt P22455 22-369)
inhibition of NF54 sporozoite invasion of primary human hepatocytes (ISI assay) by LD1 mAb, up to 25 µg/mL [4]: 20%
inhibition of NF54 sporozoite invasion of primary human hepatocytes (ISI assay) by anti-FGFR4 rabbit pAbs, up to 2 mg/mL [4]: 20%
